Patent US20100310588A1

Target: BDC2.5 T cell receptor (transgenic TCR alpha/beta of BDC2.5 TCR Tg mice) (mouse)
Test: cell-based or functional assay

fold expansion of antigen-specific cells during the 10 day culture (lowest seeding, 0.001%): 5000 fold
Substance: p31-I-A^g7 multimer (recombinant MHC class II I-A^g7 presenting the BDC2.5 TCR mimotope peptide 1040-31) (peptide-MHC)
